Experiments:
[1] = target: PICK1 (protein interacting with C-kinase 1) (UniProt Q9EP80)
Chain of UniProt Q9EP80 (Q9EP80 whole entry): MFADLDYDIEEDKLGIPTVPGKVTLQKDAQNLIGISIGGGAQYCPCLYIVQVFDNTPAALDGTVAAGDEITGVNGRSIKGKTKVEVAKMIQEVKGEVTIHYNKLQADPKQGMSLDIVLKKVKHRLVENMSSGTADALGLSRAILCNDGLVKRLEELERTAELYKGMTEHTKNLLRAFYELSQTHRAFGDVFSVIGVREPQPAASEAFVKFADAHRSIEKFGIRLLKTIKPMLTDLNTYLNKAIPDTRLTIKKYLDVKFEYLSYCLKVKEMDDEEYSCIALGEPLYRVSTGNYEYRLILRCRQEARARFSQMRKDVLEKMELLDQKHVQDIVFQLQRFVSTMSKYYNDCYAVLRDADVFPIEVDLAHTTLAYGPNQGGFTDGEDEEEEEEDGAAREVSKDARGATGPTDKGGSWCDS

Row | Substance | stoichiometry N (GCN4-GS (yeast)) | Ki [1] [nM]
1 | GCN4-GS (peptide) | 2 | 
2 | GCN4(7P14P)-HWLKV (peptide) |  | 548
3 | GCN4-HWLKV (peptide) |  | 119

Reference: publication doi:10.1101/2023.03.03.530962
